± gives the uncertainty stated by the source.
B1: E3 ubiquitin-protein ligase TRIM36, residues 208 to 252; numbered along this chain, Q9NQ86 (parent)
chain: KILMCPEHETERINMYCELCRRPVCHLCKLGGNHANHRVTTMSSA

Variants of: B1
Assay: abundance fitness (aPCA) (normalised: wild type 0, dead -1); higher = more abundant; growth selection in yeast, the domain comes from the species named
Settings: Homo sapiens
Work on KILMCPEHETERINMYCELCRRPVCHLCKLGGQHANHRVTTMSSA [N33Q] yielded an abundance fitness of 0.073 ± 0.06.
With KILMCPEHETERINMYCELCRRPVCHLCKLGGNHANHKVTTMSSA [R38K] the abundance fitness was -0.006 ± 0.071.
Work on KILMCPEHETERINMYCELCRRPVCHLCKLGRNHANHRVTTMSSA [G32R] yielded an abundance fitness of -0.138 ± 0.049.
Work on FILMCPEHETERINMYCELCRRPVCHLCKLGGNHANHRVTTMSSA [K1F] yielded an abundance fitness of -0.167 ± 0.097.
KILMCPEHETERINMYCELCRRPVCHLCKLWGNHANHRVTTMSSA [G31W] gave an abundance fitness of -0.438 ± 0.057.
Work on KILMCPEHETERINMYCELCRRSVCHLCKLGGNHANHRVTTMSSA [P23S] yielded an abundance fitness of -0.058 ± 0.065.
For KILMCPEHETERINMYCELCRRPVCHLCKLGGNHANHRVTTASSA [M42A], the abundance fitness was 0.12 ± 0.052.
With KILMCPEHETERIPMYCELCRRPVCHLCKLGGNHANHRVTTMSSA [N14P] the abundance fitness was -0.195 ± 0.12.
With KILMCPEHETERINMYCELCRRPVCHLCKLGGNHANIRVTTMSSA [H37I] the abundance fitness was -0.529 ± 0.16.
Work on KILMCPEHETERINMYCELCRRPVCKLCKLGGNHANHRVTTMSSA [H26K] yielded an abundance fitness of -0.384 ± 0.077.
With KILMCPEHETERINMYCELCRRIVCHLCKLGGNHANHRVTTMSSA [P23I] the abundance fitness was -0.373 ± 0.066.
KILMCPEHETERINMYCELCRRPVCHLCKLGGNHANHRVTTMSSM [A45M] gave an abundance fitness of -0.232 ± 0.099.
With KILMCPEHETERINMYCELCRRPVCHLCKLGGNHANHRVTTMLSA [S43L] the abundance fitness was -0.181 ± 0.056.
QILMCPEHETERINMYCELCRRPVCHLCKLGGNHANHRVTTMSSA [K1Q] gave an abundance fitness of -0.236 ± 0.081.
KILMCPEHETERINMYCELCYRPVCHLCKLGGNHANHRVTTMSSA [R21Y] gave an abundance fitness of 0.027 ± 0.14.
Work on KILMCPEHETERINMYCELCRGPVCHLCKLGGNHANHRVTTMSSA [R22G] yielded an abundance fitness of -0.116 ± 0.058.
Work on KILMCPEHETERINMYCELCRRPVCHLCKLGVNHANHRVTTMSSA [G32V] yielded an abundance fitness of -0.163 ± 0.064.
Variant KILMCPEHETERINMYCELCRRPVCHLCKLGLNHANHRVTTMSSA [G32L] has an abundance fitness of -0.144 ± 0.052.
For KILMCPFHETERINMYCELCRRPVCHLCKLGGNHANHRVTTMSSA [E7F], the abundance fitness was -0.129 ± 0.071.
KILMCPEHETERINMYCELCRRPVCHLCKLGGNHANHRVTTVSSA [M42V] showed an abundance fitness of 0.001 ± 0.046.
KILMCPEHETERINMYCELCRRRVCHLCKLGGNHANHRVTTMSSA [P23R] showed an abundance fitness of -0.148 ± 0.05.
KILMCPEHETERINMYLELCRRPVCHLCKLGGNHANHRVTTMSSA [C17L] gave an abundance fitness of -1.04 ± 0.45.
With KILMCPEHETERINMYCELCRRPVCHLRKLGGNHANHRVTTMSSA [C28R] the abundance fitness was -0.637 ± 0.052.
KILMCPEHEYERINMYCELCRRPVCHLCKLGGNHANHRVTTMSSA [T10Y] showed an abundance fitness of -0.171 ± 0.082.
KIRMCPEHETERINMYCELCRRPVCHLCKLGGNHANHRVTTMSSA [L3R] showed an abundance fitness of -0.114 ± 0.042.
Work on KILMCPEHETERINMYCELCRRPVCHLCKLGGNHANHRTTTMSSA [V39T] yielded an abundance fitness of 0.054 ± 0.069.
In the case of KILMCPEHETERINMYCELCRRPVCHLCKLGGNHANHRVTTMSDA [S44D], the abundance fitness is reported as 0.069 ± 0.063.
Work on SILMCPEHETERINMYCELCRRPVCHLCKLGGNHANHRVTTMSSA [K1S] yielded an abundance fitness of -0.396 ± 0.058.
With KILMCPEHETERINMYCELCRRPVCHLCKLGGNTANHRVTTMSSA [H34T] the abundance fitness was -0.338 ± 0.063.
Variant KILMCPEHETERINMYCELCRRPVCHLCKLGGNHANCRVTTMSSA [H37C] has an abundance fitness of -0.007 ± 0.061.
KILMCPEHETERINMFCELCRRPVCHLCKLGGNHANHRVTTMSSA [Y16F] showed an abundance fitness of -0.046 ± 0.084.
For KILMCPEHETERINMYCELCRRPVCHLCKLGGNHANHRVTWMSSA [T41W], the abundance fitness was -0.249 ± 0.053.
Variant KILVCPEHETERINMYCELCRRPVCHLCKLGGNHANHRVTTMSSA [M4V] has an abundance fitness of -0.077 ± 0.065.
With HILMCPEHETERINMYCELCRRPVCHLCKLGGNHANHRVTTMSSA [K1H] the abundance fitness was -0.283 ± 0.14.
KILMCPEHETERINMYCELCRRPVCDLCKLGGNHANHRVTTMSSA [H26D] gave an abundance fitness of 0.04 ± 0.085.
KILMCPEHETERINMYCELCRRPVCHLCKLAGNHANHRVTTMSSA [G31A] gave an abundance fitness of -0.034 ± 0.046.
With KILMCPEHETERINMYCELCRRPVCHLCKLFGNHANHRVTTMSSA [G31F] the abundance fitness was -0.218 ± 0.094.
For KILMCPEHETERINRYCELCRRPVCHLCKLGGNHANHRVTTMSSA [M15R], the abundance fitness was -0.329 ± 0.35.
With KILMCPEHETERIMMYCELCRRPVCHLCKLGGNHANHRVTTMSSA [N14M] the abundance fitness was 0.073 ± 0.1.
For KILMCPEHETERINMYCELCRRPVCHLEKLGGNHANHRVTTMSSA [C28E], the abundance fitness was -0.275 ± 0.057.
Work on KILMCPEHETERINMYCELCRRPVCHLCKLGGNHANHRVTTMSSD [A45D] yielded an abundance fitness of 0.078 ± 0.16.
With KILMCPEHETERINMYCELCRRPQCHLCKLGGNHANHRVTTMSSA [V24Q] the abundance fitness was -0.431 ± 0.08.
Variant KDLMCPEHETERINMYCELCRRPVCHLCKLGGNHANHRVTTMSSA [I2D] has an abundance fitness of 0.012 ± 0.077.
Variant KILMCPEHETERINMYCEECRRPVCHLCKLGGNHANHRVTTMSSA [L19E] has an abundance fitness of 0.117 ± 0.057.
Variant KILMCPEHETERINMYCELCRRPVCHLCKDGGNHANHRVTTMSSA [L30D] has an abundance fitness of 0.083 ± 0.063.
KILMCPEHETERINMYCELCTRPVCHLCKLGGNHANHRVTTMSSA [R21T] gave an abundance fitness of -0.061 ± 0.075.
Variant KILMCPEHETERINMYCELCRRPVCHLCKLIGNHANHRVTTMSSA [G31I] has an abundance fitness of -0.203 ± 0.081.
Variant KILMCPEHETERINMRCELCRRPVCHLCKLGGNHANHRVTTMSSA [Y16R] has an abundance fitness of -0.069 ± 0.065.
For KILMCPEHDTERINMYCELCRRPVCHLCKLGGNHANHRVTTMSSA [E9D], the abundance fitness was 0.008 ± 0.075.
Variant KILMCPSHETERINMYCELCRRPVCHLCKLGGNHANHRVTTMSSA [E7S] has an abundance fitness of -0.103 ± 0.056.
KILMCPEHETERINMYCELPRRPVCHLCKLGGNHANHRVTTMSSA [C20P] showed an abundance fitness of -0.819 ± 0.059.
KILMCPEHETERINMYCELCRRPVCHLCKLGGNHANHRGTTMSSA [V39G] gave an abundance fitness of 0.079 ± 0.05.
KILMCPEHETERINMYCELCRQPVCHLCKLGGNHANHRVTTMSSA [R22Q] gave an abundance fitness of 0.036 ± 0.059.
Variant KILMCPTHETERINMYCELCRRPVCHLCKLGGNHANHRVTTMSSA [E7T] has an abundance fitness of -0.042 ± 0.062.
KILMCPEHETERINMYCELCRRPVCHLCKLGGNHANGRVTTMSSA [H37G] gave an abundance fitness of -0.127 ± 0.046.
KILMCPEHETERINMYCELCRRAVCHLCKLGGNHANHRVTTMSSA [P23A] gave an abundance fitness of -0.064 ± 0.058.
Work on KILMCPEHETERINMYCELCRRPVCHLCDLGGNHANHRVTTMSSA [K29D] yielded an abundance fitness of 0.126 ± 0.12.
